Measured values reported in publication PMC7321842 (Nature, 2020).

T1: CHMP7_(R270E+I312E) (human, UniProt Q8WUX9 1-453, R270E | I312E)
T1 sequence (looked up): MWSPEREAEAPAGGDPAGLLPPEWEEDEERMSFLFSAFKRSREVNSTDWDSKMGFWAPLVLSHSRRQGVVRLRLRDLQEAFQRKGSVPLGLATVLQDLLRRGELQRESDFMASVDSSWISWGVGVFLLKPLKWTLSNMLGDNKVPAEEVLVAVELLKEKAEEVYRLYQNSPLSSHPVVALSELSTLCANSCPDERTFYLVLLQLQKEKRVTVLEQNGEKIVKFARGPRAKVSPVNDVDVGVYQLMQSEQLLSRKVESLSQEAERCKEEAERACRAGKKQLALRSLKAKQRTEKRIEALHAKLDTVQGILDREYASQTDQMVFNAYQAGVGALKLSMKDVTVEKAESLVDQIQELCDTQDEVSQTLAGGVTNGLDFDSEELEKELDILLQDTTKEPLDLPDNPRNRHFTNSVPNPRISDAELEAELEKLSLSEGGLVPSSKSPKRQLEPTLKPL

T2: CHMP7_(R270E+V339D) (human, UniProt Q8WUX9 1-453, R270E | V339D)
T2 sequence (looked up): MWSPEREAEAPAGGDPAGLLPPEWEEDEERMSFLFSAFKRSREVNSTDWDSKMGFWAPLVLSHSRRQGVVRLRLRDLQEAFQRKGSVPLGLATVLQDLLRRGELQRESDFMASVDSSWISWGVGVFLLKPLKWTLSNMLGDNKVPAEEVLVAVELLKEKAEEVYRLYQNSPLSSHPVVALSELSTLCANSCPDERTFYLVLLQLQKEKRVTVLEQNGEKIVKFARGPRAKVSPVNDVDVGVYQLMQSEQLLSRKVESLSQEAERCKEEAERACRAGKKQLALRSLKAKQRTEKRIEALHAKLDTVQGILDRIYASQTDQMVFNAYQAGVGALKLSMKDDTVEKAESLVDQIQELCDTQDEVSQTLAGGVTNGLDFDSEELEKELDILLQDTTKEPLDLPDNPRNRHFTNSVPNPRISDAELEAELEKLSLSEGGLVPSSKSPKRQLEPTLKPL

T3: CHMP7_(I312E+V339D) (human, UniProt Q8WUX9 1-453, I312E | V339D)
T3 sequence (looked up): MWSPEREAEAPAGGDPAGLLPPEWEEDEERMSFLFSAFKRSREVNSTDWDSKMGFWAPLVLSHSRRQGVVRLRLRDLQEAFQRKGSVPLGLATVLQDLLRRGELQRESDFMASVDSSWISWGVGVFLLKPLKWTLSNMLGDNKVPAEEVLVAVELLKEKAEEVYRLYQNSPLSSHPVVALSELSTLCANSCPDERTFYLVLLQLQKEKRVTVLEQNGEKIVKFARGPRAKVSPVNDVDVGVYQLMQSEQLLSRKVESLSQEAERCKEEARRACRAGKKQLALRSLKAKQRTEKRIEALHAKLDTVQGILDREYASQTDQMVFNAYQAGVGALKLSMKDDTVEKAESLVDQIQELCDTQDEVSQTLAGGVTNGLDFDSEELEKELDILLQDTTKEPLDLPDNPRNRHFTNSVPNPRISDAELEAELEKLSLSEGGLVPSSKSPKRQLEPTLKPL

T4: full-length, human CHMP7 (human, UniProt Q8WUX9 1-453)
T4 sequence (looked up): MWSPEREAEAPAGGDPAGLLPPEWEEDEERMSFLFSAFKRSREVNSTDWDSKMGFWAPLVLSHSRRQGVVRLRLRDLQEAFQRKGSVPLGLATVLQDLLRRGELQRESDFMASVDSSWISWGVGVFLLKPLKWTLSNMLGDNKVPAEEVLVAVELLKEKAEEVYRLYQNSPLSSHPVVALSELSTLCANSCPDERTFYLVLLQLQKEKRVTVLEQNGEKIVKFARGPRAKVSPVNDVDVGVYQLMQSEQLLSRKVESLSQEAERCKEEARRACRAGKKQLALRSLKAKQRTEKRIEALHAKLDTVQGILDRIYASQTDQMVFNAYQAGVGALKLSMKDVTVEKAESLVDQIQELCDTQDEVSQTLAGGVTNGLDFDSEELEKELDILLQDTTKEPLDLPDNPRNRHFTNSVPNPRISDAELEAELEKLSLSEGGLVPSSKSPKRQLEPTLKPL


Legend:
[1] = biological target: the molecule itself; test: negative stain electron microscopy of polymers
CHMP7_(R270E+I312E) = biological target: T1, CHMP7_(R270E+I312E); test: co-sedimentation
CHMP7_(R270E+V339D) = biological target: T2, CHMP7_(R270E+V339D); test: co-sedimentation
CHMP7_(I312E+V339D) = biological target: T3, CHMP7_(I312E+V339D); test: co-sedimentation
full-length, human CHMP7 = biological target: T4, full-length, human CHMP7; test: co-sedimentation

binding result (CHMP7_(R270E+I312E)) | binding result (CHMP7_(R270E+V339D)) | binding result (CHMP7_(I312E+V339D)) | stoichiometry N (full-length, human CHMP7) | Binder | binding result [1]
– | – | – | – | CHMP7_(ESCRT-III) (AA:229–453) (domain or fragment, human, UniProt Q8WUX9 229-453, looked up) AKVSPVNDVDVGVYQLMQSEQLLSRKVESLSQEAERCKEEARRACRAGKKQLALRSLKAKQRTEKRIEALHAKLDTVQGILDRIYASQTDQMVFNAYQAGVGALKLSMKDVTVEKAESLVDQIQELCDTQDEVSQTLAGGVTNGLDFDSEELEKELDILLQDTTKEPLDLPDNPRNRHFTNSVPNPRISDAELEAELEKLSLSEGGLVPSSKSPKRQLEPTLKPL | binds
binds | binds | binds | 1 | WH domain of LEM2 (LEM2WH; AA:395–503) (domain or fragment, human, UniProt Q8NC56 395-503, looked up) ILLKYRWRKLEEEEQAMYEMVKKIIDVVQDHYVDWEQDMERYPYVGILHVRDSLIPPQSRRRMKRVWDRAVEFLASNESRIQTESHRVAGEDMLVWRWTKPSSFSDSER | –
